Target: T1, GST-Rsa1p (yeast (S. cerevisiae), UniProt Q08932 1-381)
T1 sequence: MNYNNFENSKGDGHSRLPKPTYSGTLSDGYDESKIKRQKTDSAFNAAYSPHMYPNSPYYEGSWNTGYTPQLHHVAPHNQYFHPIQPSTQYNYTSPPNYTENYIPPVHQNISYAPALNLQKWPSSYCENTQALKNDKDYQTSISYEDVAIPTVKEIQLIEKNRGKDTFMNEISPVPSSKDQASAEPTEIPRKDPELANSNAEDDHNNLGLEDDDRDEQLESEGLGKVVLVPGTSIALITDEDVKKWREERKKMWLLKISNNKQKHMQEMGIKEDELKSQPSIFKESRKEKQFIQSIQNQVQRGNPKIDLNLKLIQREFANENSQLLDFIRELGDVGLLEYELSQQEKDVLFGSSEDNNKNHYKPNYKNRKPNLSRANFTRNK
Test: pull-down

binding result: binds
B1: recombinant Snu13p (natural protein)
chain: MSAPNPKAFPLADAALTQQILDVVQQAANLRQLKKGANEATKTLNRGISEFIIMAADCEPIEILLHLPLLCEDKNVPYVFVPSRVALGRACGVSRPVIAASITTNDASAIKTQIYAVKDKIETLLI

Reference: PMC2234240 (The Journal of Cell Biology, 2008)
